Reference: patent US20240024426A1, “HYPOTENSIVE PHARMACEUTICAL COMPOSITION COMPRISING TRIPLE ACTIVATOR HAVING ACTIVITY FOR ALL OF GLUCAGON, GLP-1, AND GIP RECEPTORS” (HANMI PHARM. CO., LTD., priority 2020, published 2024)
Bridges are numbered along the chain shown (N, C = ends). Where no end group is shown, it is not given here. [ ]: non-standard residue; d: D form. Aib = CC(C)(N)C(=O)O

Assays:
Assay in all cases: cell-based or functional assay
human GCG receptor = human GCG receptor (human, UniProt P47871 26-477)
Sequence of human GCG receptor (P47871 26-477): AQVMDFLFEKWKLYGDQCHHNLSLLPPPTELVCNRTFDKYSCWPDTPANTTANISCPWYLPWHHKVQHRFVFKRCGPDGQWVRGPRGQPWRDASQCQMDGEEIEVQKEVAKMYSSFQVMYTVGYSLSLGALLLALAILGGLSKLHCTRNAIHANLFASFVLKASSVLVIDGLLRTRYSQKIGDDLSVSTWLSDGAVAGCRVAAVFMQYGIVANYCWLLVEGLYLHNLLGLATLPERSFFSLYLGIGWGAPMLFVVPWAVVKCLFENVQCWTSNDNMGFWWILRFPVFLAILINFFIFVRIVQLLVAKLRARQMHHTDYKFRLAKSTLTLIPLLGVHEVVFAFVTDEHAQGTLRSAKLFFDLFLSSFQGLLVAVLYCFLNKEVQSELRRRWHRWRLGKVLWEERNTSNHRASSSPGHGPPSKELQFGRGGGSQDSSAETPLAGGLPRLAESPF

human GIP receptor = target: T1, human GIP receptor (human, UniProt P48546 22-466)
T1 sequence (looked up): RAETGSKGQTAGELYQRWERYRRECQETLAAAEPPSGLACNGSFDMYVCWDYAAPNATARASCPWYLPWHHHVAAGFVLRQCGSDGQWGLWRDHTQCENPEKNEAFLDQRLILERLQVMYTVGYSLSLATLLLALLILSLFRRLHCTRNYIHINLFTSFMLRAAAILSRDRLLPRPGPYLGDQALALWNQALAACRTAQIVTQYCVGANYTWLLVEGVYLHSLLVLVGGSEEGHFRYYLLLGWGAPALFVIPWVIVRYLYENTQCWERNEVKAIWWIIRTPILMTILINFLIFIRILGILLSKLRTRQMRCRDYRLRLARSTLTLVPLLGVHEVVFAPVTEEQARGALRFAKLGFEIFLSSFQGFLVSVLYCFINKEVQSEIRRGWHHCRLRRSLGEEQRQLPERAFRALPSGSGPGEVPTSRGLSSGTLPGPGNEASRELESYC

human GLP-1 receptor = human GLP-1 receptor (human, UniProt P43220 24-463)

B1: Triple agonist of SEQ ID NO: 33 (peptide)
peptide: H[Aib]QGTFTSDYSIAMDEIHQKDFVNWLLAQKC
modifications: bridge 16-20
In vitro activity compared with native peptide (%) vs. Glucagon (human GCG receptor): < 0.1% | In vitro activity compared with native peptide (%) vs. GIP (human GIP receptor): 10.4% | In vitro activity compared with native peptide (%) vs. GLP-1 (human GLP-1 receptor): 24.5%
